In paper PMC10228794:

These substances were tested against 10.17DT SOSIP (assay: SPR). Details: mutated DH270 UCA antibodies were injected at 100nM; 3000–4000 RUs of 10.17DT on the sensor chip; parent: est. 43; read off a plot.

Row | Substance | response [RU]
1 | DH270 UCA IgG (unmutated common ancestor of bnAb DH270.6) W101G | 3.5
2 | DH270 UCA IgG (unmutated common ancestor of bnAb DH270.6) Y111W | 26
3 | DH270 UCA IgG (unmutated common ancestor of bnAb DH270.6) I102L | 29
4 | DH270 UCA IgG (unmutated common ancestor of bnAb DH270.6) W101F | 36
5 | DH270 UCA IgG (unmutated common ancestor of bnAb DH270.6) W101Y | 15
6 | DH270 UCA IgG (unmutated common ancestor of bnAb DH270.6) I102S | 34
7 | DH270 UCA IgG (unmutated common ancestor of bnAb DH270.6) I102V | 54
8 | DH270 UCA IgG (unmutated common ancestor of bnAb DH270.6) I102N | 43
9 | DH270 UCA IgG (unmutated common ancestor of bnAb DH270.6) Y111F | 38
10 | DH270 UCA IgG (unmutated common ancestor of bnAb DH270.6) Y111N | 0
11 | DH270 UCA IgG (unmutated common ancestor of bnAb DH270.6) W101R | 0
12 | DH270 UCA IgG (unmutated common ancestor of bnAb DH270.6) Y111H | 25
13 | DH270 UCA IgG (unmutated common ancestor of bnAb DH270.6) I102D | 6.5
